Measurements as given in patent US11433099B2, “Immunotherapy with B*08 restricted peptides and combination of peptides against cancers and related methods” (Immatics Biotechnologies GmbH, priority 2018, dated 2022).

Biological target: HLA-B*08:01 (Homo sapiens, UniProt P01889)
Assay: MHC binding assay (UV-ligand exchange, beta2m ELISA)
Details: MHC class I binding score; binding to HLA-B*08:01 ranged by peptide exchange yield (UV-ligand exchange, β2m ELISA)
Description: Candidate peptides for T cell based therapies according to the present invention were further tested for their MHC binding capacity (affinity). The individual peptide-MHC complexes were produced by UV-ligand exchange, where a UV-sensitive peptide is cleaved upon UV-irradiation and exchanged with the peptide of interest as analyzed. Only peptide candidates that can effectively bind and stabilize the peptide-receptive MHC molecules prevent dissociation of the MHC complexes. To determine the yield of the exchange reaction, an ELISA was performed based on the detection of the light chain (β2m) of stabilized MHC complexes. The assay was performed as generally described in Rodenko et al. (Rodenko et al., 2006).
96 well MAXISorp plates (NUNC) were coated over night with 2 ug/ml streptavidin in PBS at room temperature, washed 4× and blocked for 1 h at 37° C. in 2% BSA containing blocking buffer. Refolded HLA-A*02:01/MLA-001 monomers served as standards, covering the range of 15-500 ng/ml. Peptide-MHC monomers of the UV-exchange reaction were diluted 100-fold in blocking buffer. Samples were incubated for 1 h at 37° C., washed four times, incubated with 2 ug/ml HRP conjugated anti-β2m for 1 h at 37° C., washed again and detected with TMB solution that is stopped with […]. Absorption was measured at 450 nm. Candidate peptides that show a high exchange yield (preferably higher than 50%, most preferred higher than 75%) are generally preferred for a generation and production of antibodies or fragments thereof, and/or T cell receptors or fragments thereof, as they show sufficient avidity to the MHC molecules and prevent dissociation of the MHC complexes.

Substance | Peptide exchange
43 (DLKKLVDSL; listed as Homo sapiens) [compound 43] | +++ (50% = +++)
107 (LPKGLKDWQA; listed as Homo sapiens) [compound 107] | ++ (20% = ++)
94 (DQLLRHVM; listed as Homo sapiens) [compound 94] | +++ (50% = +++)
193 (LGGLRLTAL; listed as Homo sapiens) [compound 193] | ++ (20% = ++)
15 (LLKKIEHA; listed as Homo sapiens) [compound 15] | ++ (20% = ++)
88 (MLLCLSLEL; listed as Homo sapiens) [compound 88] | ++ (20% = ++)
229 (DTHTNTYYL; listed as Homo sapiens) [compound 229] | ++ (20% = ++)
236 (STLKKSLEI; listed as Homo sapiens) [compound 236] | ++ (20% = ++)
214 (DAPRHRLL; listed as Homo sapiens) [compound 214] | ++ (20% = ++)
117 (VGPNGFKSL; listed as Homo sapiens) [compound 117] | ++ (20% = ++)
231 (GEKLLRPSL; listed as Homo sapiens) [compound 231] | ++ (20% = ++)
149 (TQKSVQVL; listed as Homo sapiens) [compound 149] | ++ (20% = ++)
245 (GPRGPSSGHPL; listed as Homo sapiens) [compound 245] | ++ (20% = ++)
157 (QPYRFPQA; listed as Homo sapiens) [compound 157] | ++ (20% = ++)
51 (ERRVKVSSL; listed as Homo sapiens) [compound 51] | +++ (50% = +++)
119 (FQRVSSVSF; listed as Homo sapiens) [compound 119] | +++ (50% = +++)
103 (IANLRVKNI; listed as Homo sapiens) [compound 103] | +++ (50% = +++)

Substance | Peptide exchange
111 (GAGLRITAPL; listed as Homo sapiens) [compound 111] | ++ (20% = ++)
217 (ETIKGHSVRL; listed as Homo sapiens) [compound 217] | ++ (20% = ++)
207 (LRKRKSPE; listed as Homo sapiens) [compound 207] | ++ (20% = ++)
79 (GLARIYSF; listed as Homo sapiens) [compound 79] | ++ (20% = ++)
221 (SLKEELLSL; listed as Homo sapiens) [compound 221] | +++ (50% = +++)
206 (MEFPNKFNTL; listed as Homo sapiens) [compound 206] | ++ (20% = ++)
97 (EPVTKAEM; listed as Homo sapiens) [compound 97] | +++ (50% = +++)
153 (HAIPHYVTM; listed as Homo sapiens) [compound 153] | ++ (20% = ++)
190 (ELLNRIYF; listed as Homo sapiens) [compound 190] | ++ (20% = ++)
161 (DIVPPFSAF; listed as Homo sapiens) [compound 161] | ++ (20% = ++)
185 (MELKTVKPI; listed as Homo sapiens) [compound 185] | ++ (20% = ++)
126 (TAAEARLSL; listed as Homo sapiens) [compound 126] | ++ (20% = ++)
237 (LPLDSRYVTL; listed as Homo sapiens) [compound 237] | +++ (50% = +++)
46 (DLRNKIIAA; listed as Homo sapiens) [compound 46] | +++ (50% = +++)
14 (ELILKRCL; listed as Homo sapiens) [compound 14] | +++ (50% = +++)
151 (DRHLTNRVL; listed as Homo sapiens) [compound 151] | ++ (20% = ++)
115 (MRILKRFLAC; listed as Homo sapiens) [compound 115] | ++ (20% = ++)
